Assay results as given in patent publication US20240240209A1, “SYNTHESIS OF ENANTIOPURE CIS-A-IRONE FROM A RENEWABLE CARBON SOURCE” (Agency for Science, Technology and Research, priority 2021, published 2024).

B1: pMT1_E153G: pMT1 with E153G (protein)
chain: MPQEARTPQQQVTADEVGDWYDKFGEVYHLTLGESVHCGLWFPPDAPVPQDMELVTMSSQAQDRYTDYLIETLDPKAGQHLLDIGCGTGRTALKAARQRGIAVTGVAVSKEQIAAANRLAAGHGLTERLTFEVADAMRLPYEDESFDCAWAIGSLCHMDRAKALGEAWRVLKPGGDLLVLESVVTEELTEPETALFETLYAANVPPRLGEFFDIVSGAGFHTLSLKDLSANLAMTMNVFALGVYSRRAEFTERFGAEFVDGLLAGLGSAQETLIRKTRFFMATLRKPAV
B2: pMT1_E153H: pMT1 with E153H (protein)
chain: MPQEARTPQQQVTADEVGDWYDKFGEVYHLTLGESVHCGLWFPPDAPVPQDMELVTMSSQAQDRYTDYLIETLDPKAGQHLLDIGCGTGRTALKAARQRGIAVTGVAVSKEQIAAANRLAAGHGLTERLTFEVADAMRLPYEDESFDCAWAIHSLCHMDRAKALGEAWRVLKPGGDLLVLESVVTEELTEPETALFETLYAANVPPRLGEFFDIVSGAGFHTLSLKDLSANLAMTMNVFALGVYSRRAEFTERFGAEFVDGLLAGLGSAQETLIRKTRFFMATLRKPAV
B3: pMT1_E153I: pMT1 with E153I (protein)
chain: MPQEARTPQQQVTADEVGDWYDKFGEVYHLTLGESVHCGLWFPPDAPVPQDMELVTMSSQAQDRYTDYLIETLDPKAGQHLLDIGCGTGRTALKAARQRGIAVTGVAVSKEQIAAANRLAAGHGLTERLTFEVADAMRLPYEDESFDCAWAIISLCHMDRAKALGEAWRVLKPGGDLLVLESVVTEELTEPETALFETLYAANVPPRLGEFFDIVSGAGFHTLSLKDLSANLAMTMNVFALGVYSRRAEFTERFGAEFVDGLLAGLGSAQETLIRKTRFFMATLRKPAV
B4: pMT1_M236G: pMT1 with M236G (protein)
chain: MPQEARTPQQQVTADEVGDWYDKFGEVYHLTLGESVHCGLWFPPDAPVPQDMELVTMSSQAQDRYTDYLIETLDPKAGQHLLDIGCGTGRTALKAARQRGIAVTGVAVSKEQIAAANRLAAGHGLTERLTFEVADAMRLPYEDESFDCAWAIESLCHMDRAKALGEAWRVLKPGGDLLVLESVVTEELTEPETALFETLYAANVPPRLGEFFDIVSGAGFHTLSLKDLSANLAMTGNVFALGVYSRRAEFTERFGAEFVDGLLAGLGSAQETLIRKTRFFMATLRKPAV
B5: pMT1_M236H: pMT1 with M236H (protein)
chain: MPQEARTPQQQVTADEVGDWYDKFGEVYHLTLGESVHCGLWFPPDAPVPQDMELVTMSSQAQDRYTDYLIETLDPKAGQHLLDIGCGTGRTALKAARQRGIAVTGVAVSKEQIAAANRLAAGHGLTERLTFEVADAMRLPYEDESFDCAWAIESLCHMDRAKALGEAWRVLKPGGDLLVLESVVTEELTEPETALFETLYAANVPPRLGEFFDIVSGAGFHTLSLKDLSANLAMTHNVFALGVYSRRAEFTERFGAEFVDGLLAGLGSAQETLIRKTRFFMATLRKPAV
B6: pMT1_M236I: pMT1 with M236I (protein)
chain: MPQEARTPQQQVTADEVGDWYDKFGEVYHLTLGESVHCGLWFPPDAPVPQDMELVTMSSQAQDRYTDYLIETLDPKAGQHLLDIGCGTGRTALKAARQRGIAVTGVAVSKEQIAAANRLAAGHGLTERLTFEVADAMRLPYEDESFDCAWAIESLCHMDRAKALGEAWRVLKPGGDLLVLESVVTEELTEPETALFETLYAANVPPRLGEFFDIVSGAGFHTLSLKDLSANLAMTINVFALGVYSRRAEFTERFGAEFVDGLLAGLGSAQETLIRKTRFFMATLRKPAV
B7: pMT1_R160G (protein)
chain: MPQEARTPQQQVTADEVGDWYDKFGEVYHLTLGESVHCGLWFPPDAPVPQDMELVTMSSQAQDRYTDYLIETLDPKAGQHLLDIGCGTGRTALKAARQRGIAVTGVAVSKEQIAAANRLAAGHGLTERLTFEVADAMRLPYEDESFDCAWAIESLCHMDGAKALGEAWRVLKPGGDLLVLESVVTEELTEPETALFETLYAANVPPRLGEFFDIVSGAGFHTLSLKDLSANLAMTMNVFALGVYSRRAEFTERFGAEFVDGLLAGLGSAQETLIRKTRFFMATLRKPAV
B8: pMT1_R160H: pMT1 with R160H (protein)
chain: MPQEARTPQQQVTADEVGDWYDKFGEVYHLTLGESVHCGLWFPPDAPVPQDMELVTMSSQAQDRYTDYLIETLDPKAGQHLLDIGCGTGRTALKAARQRGIAVTGVAVSKEQIAAANRLAAGHGLTERLTFEVADAMRLPYEDESFDCAWAIESLCHMDHAKALGEAWRVLKPGGDLLVLESVVTEELTEPETALFETLYAANVPPRLGEFFDIVSGAGFHTLSLKDLSANLAMTMNVFALGVYSRRAEFTERFGAEFVDGLLAGLGSAQETLIRKTRFFMATLRKPAV
B9: pMT1_R160I: pMT1 with R160I (protein)
chain: MPQEARTPQQQVTADEVGDWYDKFGEVYHLTLGESVHCGLWFPPDAPVPQDMELVTMSSQAQDRYTDYLIETLDPKAGQHLLDIGCGTGRTALKAARQRGIAVTGVAVSKEQIAAANRLAAGHGLTERLTFEVADAMRLPYEDESFDCAWAIESLCHMDIAKALGEAWRVLKPGGDLLVLESVVTEELTEPETALFETLYAANVPPRLGEFFDIVSGAGFHTLSLKDLSANLAMTMNVFALGVYSRRAEFTERFGAEFVDGLLAGLGSAQETLIRKTRFFMATLRKPAV
B10: pMT1_Y200G: pMT1 with Y200G (protein)
chain: MPQEARTPQQQVTADEVGDWYDKFGEVYHLTLGESVHCGLWFPPDAPVPQDMELVTMSSQAQDRYTDYLIETLDPKAGQHLLDIGCGTGRTALKAARQRGIAVTGVAVSKEQIAAANRLAAGHGLTERLTFEVADAMRLPYEDESFDCAWAIESLCHMDRAKALGEAWRVLKPGGDLLVLESVVTEELTEPETALFETLGAANVPPRLGEFFDIVSGAGFHTLSLKDLSANLAMTMNVFALGVYSRRAEFTERFGAEFVDGLLAGLGSAQETLIRKTRFFMATLRKPAV
B11: pMT1_Y200H: pMT1 with Y200H (protein)
chain: MPQEARTPQQQVTADEVGDWYDKFGEVYHLTLGESVHCGLWFPPDAPVPQDMELVTMSSQAQDRYTDYLIETLDPKAGQHLLDIGCGTGRTALKAARQRGIAVTGVAVSKEQIAAANRLAAGHGLTERLTFEVADAMRLPYEDESFDCAWAIESLCHMDRAKALGEAWRVLKPGGDLLVLESVVTEELTEPETALFETLHAANVPPRLGEFFDIVSGAGFHTLSLKDLSANLAMTMNVFALGVYSRRAEFTERFGAEFVDGLLAGLGSAQETLIRKTRFFMATLRKPAV
B12: pMT1_Y200I: pMT1 with Y200I (protein)
chain: MPQEARTPQQQVTADEVGDWYDKFGEVYHLTLGESVHCGLWFPPDAPVPQDMELVTMSSQAQDRYTDYLIETLDPKAGQHLLDIGCGTGRTALKAARQRGIAVTGVAVSKEQIAAANRLAAGHGLTERLTFEVADAMRLPYEDESFDCAWAIESLCHMDRAKALGEAWRVLKPGGDLLVLESVVTEELTEPETALFETLIAANVPPRLGEFFDIVSGAGFHTLSLKDLSANLAMTMNVFALGVYSRRAEFTERFGAEFVDGLLAGLGSAQETLIRKTRFFMATLRKPAV

Assay: Cell lysate reaction of pMT enzymes with psi-ionone, irones quantified by HS-SPME-GCMS
Type: biochemical
Conditions: pMT1_E153 mutants; AUC vs non-mutated (=1)
Method: Using the structure of pMT1 in complex with the cofactor S-adenosyl-L-homocysteine (SAH) and the substrate teleocidin A1 (PDB id: 5GM2) as a template, pMT1 bound to each of the four isomers of α-irone was modelled with the aim of identifying amino acid residues that could be critical to increase cis-α-irone or decrease trans-α-irone production (FIGS. 2d and 2e). […] Site-directed mutagenesis of the 24 residues was carried out with degenerative primers. Subsequently, the mutants of each site were pooled together, and examined if the activity or product-selectivity of the pooled mutants were increased (FIG. 8). This reduced the number of screening reactions to 24, which is manageable when a high-throughput enzymatic assay is not available. […] One residue was chosen and subjected to site-saturation mutagenesis by using degenerative primers containing NNN or NNK. The plasmid library was then transformed into E. coli BL21 (DE3) cells and plated on agar plate containing autoinduction media^19. […] Subsequently, the colonies were collected and resuspended in phosphate saline buffer. Equal number of cells was taken for lysis and cell lysate reactions were carried out in capped SPME-GC vials at 28° C. for 2 days. HS-SPME-GCMS analysis was used to quantify the amount of irones produced by each pooled-colony reaction. […] 24 residues including the control Gly85 (G85m) were subjected to site-saturation mutagenesis, using pMT1 as the template. […] The amount of cis-α-irone produced was estimated based on the area under the gas chromatogram curve (AUC). The fold change is calculated by comparing the AUC of cis-α-irone produced by the mutant enzyme to that of non-mutated.
For each pMT mutant, it was transformed into BL21 and grown in autoinduction media with 5 mM lactose at 20° C. for 36 hrs. Then, cells were pelleted and concentrated 10 times by adding 1 ml of PBS. The OD600 was measured and 40*600 OD*ul cells were transferred into a new 1.5 ml tube. The cells were spun down and resuspended in 600 μl of lysis buffer (1×DNase buffer, 150 mM NaCl, 0.5% glycerol, 1 mg/ml lysozyme and 20U of DNasel). The cells were incubated for 2 hrs at 20° C. with shaking at 300 rpm. Following that, 2 cycles of freeze-thaw was done to completely lyse the cells. At the end of the 2nd thawing, the cell lysate was used to setup a 1 ml reaction in 2 ml GC vials. The reaction consisted of 50 mM Tris (pH7), 10 mM MgCl2, 60 mM NaCl, 0.2 mM SAM and 10 mg/L of psi-ionone and caryophyllene each. To this, 500 μl of cell lysate was added while the remaining 100 μl was used for SDS-PAGE to analyze the total and soluble protein expression. The reaction was incubated for 2 days at 28° C., 300 rpm prior to extraction of cis-α-irone with 500 μl hexane. From this, 20 μl of organic layer was taken into 180 μl hexane for GCMS analysis.
For the mutant pMT activity screening, the reactants and products were analyzed by head space solid phase microextraction (HS-SPME) coupled with an Agilent 5977B gas chromatography (GC) system equipped with Agilent DB-5 ms column (30 m×250 μm×0.25 μm) and mass spectrometry (MS) with high efficiency source. The reaction mixtures were carried out in SPME vials which were incubated at 60° C. for 20 mins to allow the release of volatile compounds. The absorbent fiber (50/30 μm divinylbenzol/carboxen/polydimethyl-SPME fiber, SUPELCO) was then exposed to the headspace of the vial for 20 mins. The extracted analytes were desorbed at the GC inlet at 250° C. for 1 min and injected into GC with a split ratio of 200:1. The GC oven temperature increased from 50° C. to 140° C. at a rate of 10° C./min and held at 140° C. for 10 min. Subsequently, the temperature was increased to 320° C. at a rate of 60° C./min and held at 320° C. for 2 mins.

In order of falling “fold change in cis-α-irone produced” value:
1. B1  0.0
2. B2  0.0
3. B3  0.0

Same assay, conditions: pMT1_M236 mutants; AUC vs non-mutated (=1)

In order of falling “fold change in cis-α-irone produced” value:
1. B5  2.6
2. B6  0.5
3. B4  0.0

Same assay, conditions: pMT1_R160 mutants; AUC vs non-mutated (=1)

In order of rising “fold change in cis-α-irone produced” value:
1. B7  0.0
2. B8  1.0
3. B9  1.5

Same assay, conditions: pMT1_Y200 mutants; AUC vs non-mutated (=1)

In order of falling “fold change in cis-α-irone produced” value:
1. B12  2.0
2. B11  0.2
3. B10  0.1
